Target: human brain-derived G protein-coupled receptor protein ZAQ (human)
Test: cell-based or functional assay

increase in the intracellular calcium ion concentration (FLIPR), EC50: 96 pM
Substance: Human type ZAQ ligand mature peptide (type G, 86 amino acid residues)
